{"source": "patent US10918733B2", "about": "“Lipopeptide- and lipoprotein-conjugates and its use” (HELMHOLTZ-ZENTRUM FUER INFEKTIONSFORSCHUNG GMBH, priority 2009, dated 2021)", "molecules": {"B1": {"name": "Ova: model antigen ovalbumin (Sigma Chemie) (protein, UniProt P01012 2-386, looked up)", "Ovalbumin": "GSIGAASMEFCFDVFKELKVHHANENIFYCPIAIMSALAMVYLGAKDSTRTQINKVVRFDKLPGFGDSIEAQCGTSVNVHSSLRDILNQITKPNDVYSFSLASRLYAEERYPILPEYLQCVKELYRGGLEPINFQTAADQARELINSWVESQTNGIIRNVLQPSSVDSQTAMVLVNAIVFKGLWEKAFKDEDTQAMPFRVTEQESKPVQMMYQIGLFRVASMASEKMKILELPFASGTMSMLVLLPDEVSGLEQLESIINFEKLTEWTSSNVMEERKIKVYLPRMKMEEKYNLTSVLMAMGITDVFSSSANLSGISSAESLKISQAVHAAHAEINEAGREVVGSAEAGVDAASVSEEFRADHPFLFCIKHIATNAVLFFGRCVSP"}}, "tested_on": "Ova-specific IgG1 antibodies", "test": "Serum Ova-specific antibody titers after immunization (ELISA)", "type": "in vivo, C57BL6 mice", "details": "i.n.; by the end of the immunization protocol", "procedure": "Experimental protocol 1: six-eight weeks-old female C57BL6 mice were purchased from Harlan Winkelmann GmbH (Borchen, Germany) and treated in accordance with local and European Community guidelines. Groups of 5 mice each were immunized on day 1, 14 and 28 with 30 μg of Ova (Sigma Chemie, Deisenhofen, Germany) or LPS-free Ova (EndoGrade Ovalbumin, Hyglos GmbH) alone, co-administered with 5 μg of BPPcysMPEG or with 5 to 10 μg of synthetic BPPcysOva^mPEG alone. For intranasal (i.n.) immunization, 10 μl were applied to each naris, whereas for the s.c. the compounds were resuspended in 50 μl of PBS per dose. Serum samples were collected at different time points (day 0, 13, 27 and 38) after immunization and stored at −20° C. prior to determination of Ova-specific antibodies. 96-well Nunc-Immuno MaxiSorp assay plates (Nunc, Roskilde, Denmark) were coated with 100 μl of Ova (Sigma Chemie, Deisenhofen, Germany) at 5 μg/ml in 0.05 M carbonate buffer (pH 8.2) per well. […] Endpoint titers were expressed as the reciprocal log2 of the last dilution, which gave an optical density at 405 nm of 0.1 units above the values of the negative controls after 15 to 30 min of incubation. […]\nFIG. 5: Humoral responses stimulated following vaccination using BPPcysOva^mPEG. […] At day 38 post primary immunisation, serum samples were collected and the IgG 1 and IgG2c titres of Ova-specific antibodies were determined by ELISA. […]"}
{"molecule": "B1", "values": [{"measurement": "Ova-specific IgG1 endpoint titer in serum", "result": "≤ 10^6"}]}
